The labels stand for the following.
B1: Gtr2 (natural protein, yeast, UniProt P53290 1-341, looked up)
chain: MSLEATDSKAMVLLMGVRRCGKSSICKVVFHNMQPLDTLYLESTSNPSLEHFSTLIDLAVMELPGQLNYFEPSYDSERLFKSVGALVYVIDSQDEYINAITNLAMIIEYAYKVNPSINIEVLIHKVDGLSEDFKVDAQRDIMQRTGEELLELGLDGVQVSFYLTSIFDHSIYEAFSRIVQKLIPELSFLENMLDNLIQHSKIEKAFLFDVNSKIYVSTDSNPVDIQMYEVCSEFIDVTIDLFDLYKAPVLRNSQKSSDKDNVINPRNELQNVSQLANGVIIYLRQMIRGLALVAIIRPNGTDMESCLTVADYNIDIFKKGLEDIWANARASQAKNSIEDDV
B3: Npr2 (natural protein, yeast (endogenous, TB50 background), UniProt P39923 1-615, looked up)
chain: MLSYFQGFVPIHTIFYSVFHPTEGSKIKYEFPPNNLKNHGINFNTFKNYIIPKPILCHKLITFKYGTYRIVCYPVTINSPIYARNFFSFNFVFVFPYDCETSPYEPAITRLGKMFKVLEEQNQLLSKSERDPVFFDLKVLENSTTTPSTAGPSSTPNPSSNTTPTHPTSEKDTKDMRSSRYSDLIKDLGLPQSAFSIQDLLMRIFQDLNNYSECLIPIDEGNAVDIKIFPLLRPPTTCVSLEDVPLSSVNLKKIIDVNWDPTMMSIVPYIDGLNSIAKISKLSNSDPGLVIECIRHLIYYKCVTLSDIFQFSNIYAPSSLIRNFLTDPLMASDCQSYVTFPEVSKISNLPLNKSLGSGDQDSPSFSVRRKSKSSSIPSNPDSRTTSFSSTSRVSQNSSLNSSFSSIYKDWRQSQTSCSSSNIHVINNRNRFLPTRSCLFDLYRSLSQGQTLKTWYESKYMILKENNIDIRRFITFGLEKRIIYRCYSFPVMINAGSREPKEMTPIITKDLVNNDKLLEKRNHNHLLSATGSRNTAQSGNLKPERPSKVSFEMQRVSSLATGKSTMPKLSDEEEGILEESIRNAETFDKICVLLSKPKLEVESYLNELGEFKVINS

Common to all, as to test: cryo-EM structure
One assay has as its target Sea1 (yeast (endogenous, TB50 background), UniProt P47170 1-1584).
The assay “Gtr2” concerns the target B1.
The assay “Npr2” addresses B3.
The target of a further assay is T1, Sea3 (yeast (endogenous, TB50 background), UniProt Q03897 1-1148).
T1 sequence (looked up): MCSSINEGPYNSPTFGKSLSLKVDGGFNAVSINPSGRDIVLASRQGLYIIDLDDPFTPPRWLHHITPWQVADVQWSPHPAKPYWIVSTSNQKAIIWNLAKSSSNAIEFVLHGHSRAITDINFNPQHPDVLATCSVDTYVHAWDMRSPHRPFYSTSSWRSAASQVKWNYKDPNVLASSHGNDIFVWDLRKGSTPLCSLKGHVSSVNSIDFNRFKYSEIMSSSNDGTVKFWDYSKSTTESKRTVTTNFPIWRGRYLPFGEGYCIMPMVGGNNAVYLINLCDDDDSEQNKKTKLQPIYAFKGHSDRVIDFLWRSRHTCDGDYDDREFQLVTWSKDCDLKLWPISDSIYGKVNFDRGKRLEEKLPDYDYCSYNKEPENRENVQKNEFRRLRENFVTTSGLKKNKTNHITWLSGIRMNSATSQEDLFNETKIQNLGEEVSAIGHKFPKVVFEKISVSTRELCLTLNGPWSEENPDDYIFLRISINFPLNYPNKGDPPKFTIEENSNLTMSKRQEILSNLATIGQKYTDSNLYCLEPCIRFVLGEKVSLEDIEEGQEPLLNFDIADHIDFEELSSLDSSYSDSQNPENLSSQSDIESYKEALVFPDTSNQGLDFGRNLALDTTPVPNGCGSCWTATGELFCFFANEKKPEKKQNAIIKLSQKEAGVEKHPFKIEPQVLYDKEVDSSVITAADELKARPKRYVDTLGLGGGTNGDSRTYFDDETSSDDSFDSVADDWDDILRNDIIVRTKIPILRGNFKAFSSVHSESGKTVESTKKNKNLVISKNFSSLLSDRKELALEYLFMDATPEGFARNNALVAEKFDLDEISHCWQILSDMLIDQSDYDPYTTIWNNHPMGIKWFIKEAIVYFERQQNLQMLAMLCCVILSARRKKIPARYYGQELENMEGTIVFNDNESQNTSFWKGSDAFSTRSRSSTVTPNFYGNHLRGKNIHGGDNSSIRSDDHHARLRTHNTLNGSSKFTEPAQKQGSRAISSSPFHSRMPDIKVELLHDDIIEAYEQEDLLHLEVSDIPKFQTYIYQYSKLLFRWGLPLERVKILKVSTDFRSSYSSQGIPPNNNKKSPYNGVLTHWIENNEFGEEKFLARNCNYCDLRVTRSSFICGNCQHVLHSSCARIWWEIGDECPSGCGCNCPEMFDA

Chain of Sea1 (P47170 whole entry): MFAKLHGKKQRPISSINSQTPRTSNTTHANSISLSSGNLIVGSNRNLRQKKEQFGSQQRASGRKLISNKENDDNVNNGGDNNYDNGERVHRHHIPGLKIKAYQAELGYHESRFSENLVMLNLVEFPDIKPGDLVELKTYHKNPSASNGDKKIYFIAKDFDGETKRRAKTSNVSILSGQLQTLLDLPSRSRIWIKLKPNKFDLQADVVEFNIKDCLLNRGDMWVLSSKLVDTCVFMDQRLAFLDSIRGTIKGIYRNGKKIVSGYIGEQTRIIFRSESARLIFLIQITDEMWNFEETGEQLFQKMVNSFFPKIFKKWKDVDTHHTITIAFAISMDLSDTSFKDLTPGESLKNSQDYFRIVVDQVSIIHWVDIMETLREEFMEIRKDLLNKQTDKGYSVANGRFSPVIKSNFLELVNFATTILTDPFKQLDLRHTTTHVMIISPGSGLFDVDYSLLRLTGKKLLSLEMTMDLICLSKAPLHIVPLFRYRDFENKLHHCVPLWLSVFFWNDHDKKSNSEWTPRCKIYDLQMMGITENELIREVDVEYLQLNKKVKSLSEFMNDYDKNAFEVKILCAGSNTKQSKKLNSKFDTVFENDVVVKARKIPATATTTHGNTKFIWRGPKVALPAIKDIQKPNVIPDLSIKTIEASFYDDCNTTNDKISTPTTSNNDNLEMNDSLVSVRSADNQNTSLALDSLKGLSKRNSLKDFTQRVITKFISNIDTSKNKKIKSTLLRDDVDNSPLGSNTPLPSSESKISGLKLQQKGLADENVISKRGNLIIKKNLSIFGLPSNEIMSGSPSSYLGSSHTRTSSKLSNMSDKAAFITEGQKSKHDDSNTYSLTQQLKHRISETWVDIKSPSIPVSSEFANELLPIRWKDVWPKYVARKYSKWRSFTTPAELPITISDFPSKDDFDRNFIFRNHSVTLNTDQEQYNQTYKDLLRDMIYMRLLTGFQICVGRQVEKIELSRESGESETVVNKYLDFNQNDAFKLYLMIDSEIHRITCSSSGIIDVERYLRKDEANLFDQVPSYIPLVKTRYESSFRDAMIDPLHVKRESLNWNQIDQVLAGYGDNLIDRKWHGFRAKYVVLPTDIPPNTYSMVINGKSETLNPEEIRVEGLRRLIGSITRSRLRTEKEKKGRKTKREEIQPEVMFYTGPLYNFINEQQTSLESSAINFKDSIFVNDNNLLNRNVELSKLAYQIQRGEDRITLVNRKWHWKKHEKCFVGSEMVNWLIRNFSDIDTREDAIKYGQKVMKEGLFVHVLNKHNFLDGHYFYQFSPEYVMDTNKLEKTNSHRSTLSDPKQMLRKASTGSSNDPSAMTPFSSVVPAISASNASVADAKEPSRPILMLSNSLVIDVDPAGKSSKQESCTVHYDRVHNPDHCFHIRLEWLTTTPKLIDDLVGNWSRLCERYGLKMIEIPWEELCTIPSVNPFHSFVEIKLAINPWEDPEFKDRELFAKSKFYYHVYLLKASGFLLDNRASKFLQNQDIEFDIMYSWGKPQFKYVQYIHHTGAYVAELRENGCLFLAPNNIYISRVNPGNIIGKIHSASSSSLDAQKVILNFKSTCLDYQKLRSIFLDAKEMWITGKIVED

B1: the binding result with Sea1 is “binds”.

B2: Gtr1 (natural protein, yeast, UniProt Q00582 1-310, looked up)
chain: MSSNNRKKLLLMGRSGSGKSSMRSIIFSNYSAFDTRRLGATIDVEHSHLRFLGNMTLNLWDCGGQDVFMENYFTKQKDHIFQMVQVLIHVFDVESTEVLKDIEIFAKALKQLRKYSPDAKIFVLLHKMDLVQLDKREELFQIMMKNLSETSSEFGFPNLIGFPTSIWDESLYKAWSQIVCSLIPNMSNHQSNLKKFKEIMNALEIILFERTTFLVICSSNGENSNENHDSSDNNNVLLDPKRFEKISNIMKNFKQSCTKLKSGFKTLILNNNIYVSELSSNMVCFIVLKDMNIPQELVLENIKKAKEFFQ
On to B2, for which the binding result with Gtr2 and with Npr2 was “binds” each time.

For the molecule B3, the binding result with Sea3 is “binds”.

(Values after PMC12999518 (Nature Structural & Molecular Biology, 2026).)
